From US20030092631A1 (Genentech, published 2003)
Bridge positions count the residues as written; N and C are the ends. Ends that are not written are not given here.

B1: F1-2 (peptide)
peptide: MDCLASVEALKWCMYG
notes: synthetic peptide
B2: F1-3 (peptide)
peptide: FECLTSVEALRGCMYG
notes: synthetic peptide
B3: F1-1 (peptide)
peptide: RNCFESVAALRRCMYG
modifications: disulfide 3-13
notes: synthetic peptide; also called IGF-F1-1

How the values were obtained:
[1] = target: T1, IGF-1 (human, UniProt P05019 49-118); assay: monovalent phage ELISA; soluble IGF-1 titrated against peptide-phage binding to immobilised IGF-1
T1 sequence (P05019 49-118): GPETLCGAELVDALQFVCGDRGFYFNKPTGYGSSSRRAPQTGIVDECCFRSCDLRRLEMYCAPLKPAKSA

[2] = target: T2, phage displaying human IGF-1 (phage vector pIGF-g3) (human, UniProt P05019 49-118); assay: competition phage ELISA: peptide against IGF-1 phage binding to IGFBP-1 on plate
T2 construct: Construct as in Dubaquie and Lowman; also called IGF-1 displaying phage; Phage IGF-1; not shown: g3 of the phage vector pIGF-g3 (M13 gene III protein)
T2 sequence (P05019 49-118 limits assumed): as the sequence (P05019 49-118) above
Protocol: (§1) The IGF-1 displaying phage was titered against IGF bp1 and bp3 for a 500-1000× dilution for preincubation with serial dilutions the synthesized peptides and binding protein standards for 45 minutes. Immunosorbant plates were coated with IGF binding proteins and blocked with 0.5% TWEEN®-20 detergent and PBS and washed as above. The samples were added to the plates for 20 minutes, washed and detected as above. The experimental IC50 values are in Table 5.

[3] = target: T2, phage displaying human IGF-1 (phage …); assay: competition phage ELISA: peptide against IGF-1 phage binding to IGFBP-3 on plate
Protocol: as §1

[4] = target: T1, IGF-1; assay: cell-based or functional assay
[5] = target: T1, IGF-1; assay: displacement of 125I-IGF-1 (2 nM) from receptors on MCF-7 cells
Protocol: Cell were passaged weekly in media containing a 50/50 mix of high-glucose DMEM/ Ham's F12, with 10% fet al bovine serum and 10 mM HEPES pH 7.2. Cells were plated and grown overnight maintained at 37° C. and 5% CO₂. For IGF-1 iodination, 50 μg of IGF-1 was diluted into 200 μL of PBS and added to a tube coated with 100 μg of IODOGEN® 1,3,4,6-tetrachloro-3a-6β-diphenylglycouril) (Pierce Chemical Co.), incubated with 1 mCi of ¹²²⁵-Nal (10 μL) at room temperature for 10-15 minutes. Synthesized peptides and binding protein controls were preincubated with 2 nm ¹²⁵I IGF-1 for 40 minutes at 37° C. The samples were added to cells for 30 minutes. The cells were washed with media and lysed with 1N NaOH.

Row | Molecule | IC50 [1] [µM] | IC50 [2] [µM] | IC50 [3] [µM] | IGF-1 KIRA [4] [µM] | Insulin KIRA [4] [µM] | IC50 [5] [µM]
1 | … (from UniProt P01241 27-217) (peptide) | 209 |  |  |  |  | 
2 | B1 |  | 15.5 | 9.2 | 20 | 32.6 | 15.3
3 | B2 |  | 11.7 | 12.8 | 102 | 66.1 | 45.7
4 | B3 |  | 1.4 | 2.93 | 84.9 | 5.48 | 5.12
